According to patent US20220040297A1 (Chugai, published 2022):
Numbering of substitutions follows the chain as printed.

B1: GLS3000 G91E (antibody, name in Kabat numbering, V domains shown)
VH: QVQLVESGGGVVQPGRSLRLSCAASGFTFSNAWMHWVRQAPGKGLEWVAQIKAKSNNYATYYAESVKGRFTISRDDSKNSLYLQMNSLKTEDTAVYYCRYVHYGAYYGVDAWGQGTTVTVSS
VL: DIVMTQSPLSLPVTPGEPASISCRSSQSLVHSNRNTYLHWYQQKPGQAPRLLIYKVSNRFSGVPDRFSGSGSGTDFTLKISRVEAEDVGVYYCGQETQVPYTFGQGTKLEIK
notes: one-arm format as m2
B2: GLS3000 H34F (antibody, name in Kabat numbering, V domains shown)
VH: B1 VH
VL: B1 VL with H39F, E96G
notes: one-arm format as m2
B3: GLS3000 H34V (antibody, name in Kabat numbering, V domains shown)
VH: B1 VH
VL: B1 VL with H39V, E96G
notes: one-arm format as m2
B4: GLS3000 H34I (antibody, name in Kabat numbering, V domains shown)
VH: B1 VH
VL: B1 VL with H39I, E96G
notes: one-arm format as m2
B5: GLS3000 H27dT (antibody, name in Kabat numbering, V domains shown)
VH: B1 VH
VL: B1 VL with H31T, E96G
notes: one-arm format as m2
B6: GLS3000 H27dW (antibody, name in Kabat numbering, V domains shown)
VH: B1 VH
VL: B1 VL with H31W, E96G
notes: one-arm format as m2
B7: GLS3000 H34R (antibody, name in Kabat numbering, V domains shown)
VH: B1 VH
VL: B1 VL with H39R, E96G
notes: one-arm format as m2
B8: GLS3000 H34L (antibody, name in Kabat numbering, V domains shown)
VH: B1 VH
VL: B1 VL with H39L, E96G
notes: one-arm format as m2
B9: GLS3000 K50L (antibody, name in Kabat numbering, V domains shown)
VH: B1 VH
VL: B1 VL with K55L, E96G
notes: one-arm format as m2
B10: GLS3000 H34D (antibody, name in Kabat numbering, V domains shown)
VH: B1 VH
VL: B1 VL with H39D, E96G
notes: one-arm format as m2
B11: GLS3000 H27dI (antibody, name in Kabat numbering, V domains shown)
VH: B1 VH
VL: B1 VL with H31I, E96G
notes: one-arm format as m2
B12: GLS3000 H27dV (antibody, name in Kabat numbering, V domains shown)
VH: B1 VH
VL: B1 VL with H31V, E96G
notes: one-arm format as m2
B13: GLS3000 H27dS (antibody, name in Kabat numbering, V domains shown)
VH: B1 VH
VL: B1 VL with H31S, E96G
notes: one-arm format as m2
B14: GLS3000 H34N (antibody, name in Kabat numbering, V domains shown)
VH: B1 VH
VL: B1 VL with H39N, E96G
notes: one-arm format as m2
B15: GLS3000 H34A (antibody, name in Kabat numbering, V domains shown)
VH: B1 VH
VL: B1 VL with H39A, E96G
notes: one-arm format as m2
B16: GLS3000 H27dE (antibody, name in Kabat numbering, V domains shown)
VH: B1 VH
VL: B1 VL with H31E, E96G
notes: one-arm format as m2
B17: GLS3000 H34W (antibody, name in Kabat numbering, V domains shown)
VH: B1 VH
VL: B1 VL with H39W, E96G
notes: one-arm format as m2
B18: GLS3000 H27dG (antibody, name in Kabat numbering, V domains shown)
VH: B1 VH
VL: B1 VL with H31G, E96G
notes: one-arm format as m2
B19: GLS3000 H27dY (antibody, name in Kabat numbering, V domains shown)
VH: B1 VH
VL: B1 VL with H31Y, E96G
notes: one-arm format as m2
B20: GLS3000 H27dK (antibody, name in Kabat numbering, V domains shown)
VH: B1 VH
VL: B1 VL with H31K, E96G
notes: one-arm format as m2
B21: GLS3000 K50E (antibody, name in Kabat numbering, V domains shown)
VH: B1 VH
VL: B1 VL with K55E, E96G
notes: one-arm format as m2
B22: GLS3000 G91T (antibody, name in Kabat numbering, V domains shown)
VH: B1 VH
VL: B1 VL with E96T
notes: one-arm format as m2
B23: GLS3000 H34E (antibody, name in Kabat numbering, V domains shown)
VH: B1 VH
VL: B1 VL with H39E, E96G
notes: one-arm format as m2
B24: GLS3000 H27dA (antibody, name in Kabat numbering, V domains shown)
VH: B1 VH
VL: B1 VL with H31A, E96G
notes: one-arm format as m2
B25: GLS3000 H27dR (antibody, name in Kabat numbering, V domains shown)
VH: B1 VH
VL: B1 VL with H31R, E96G
notes: one-arm format as m2
B26: GLS3000 H34Y (antibody, name in Kabat numbering, V domains shown)
VH: B1 VH
VL: B1 VL with H39Y, E96G
notes: one-arm format as m2
B27: GLS3000 H27dF (antibody, name in Kabat numbering, V domains shown)
VH: B1 VH
VL: B1 VL with H31F, E96G
notes: one-arm format as m2
B28: GLS3000 H34G (antibody, name in Kabat numbering, V domains shown)
VH: B1 VH
VL: B1 VL with H39G, E96G
notes: one-arm format as m2
B29: GLS3000 H27dQ (antibody, name in Kabat numbering, V domains shown)
VH: B1 VH
VL: B1 VL with H31Q, E96G
notes: one-arm format as m2
B30: GLS3000 K50A (antibody, name in Kabat numbering, V domains shown)
VH: B1 VH
VL: B1 VL with K55A, E96G
notes: one-arm format as m2
B31: GLS3000 G91S (antibody, name in Kabat numbering, V domains shown)
VH: B1 VH
VL: B1 VL with E96S
notes: one-arm format as m2
B32: GLS3000 H34Q (antibody, name in Kabat numbering, V domains shown)
VH: B1 VH
VL: B1 VL with H39Q, E96G
notes: one-arm format as m2
B33: GLS3000 H34S (antibody, name in Kabat numbering, V domains shown)
VH: B1 VH
VL: B1 VL with H39S, E96G
notes: one-arm format as m2
B34: GLS3000 H34M (antibody, name in Kabat numbering, V domains shown)
VH: B1 VH
VL: B1 VL with H39M, E96G
notes: one-arm format as m2
B35: GLS3000 H34K (antibody, name in Kabat numbering, V domains shown)
VH: B1 VH
VL: B1 VL with H39K, E96G
notes: one-arm format as m2
B36: GLS3000 G91Y (antibody, name in Kabat numbering, V domains shown)
VH: B1 VH
VL: B1 VL with E96Y
notes: one-arm format as m2
B37: GLS3000 G91P (antibody, name in Kabat numbering, V domains shown)
VH: B1 VH
VL: B1 VL with E96P
notes: one-arm format as m2
B38: GLS3000 K50D (antibody, name in Kabat numbering, V domains shown)
VH: B1 VH
VL: B1 VL with K55D, E96G
notes: one-arm format as m2
B39: GLS3000 K50G (antibody, name in Kabat numbering, V domains shown)
VH: B1 VH
VL: B1 VL with K55G, E96G
notes: one-arm format as m2
B40: GLS3000 H34T (antibody, name in Kabat numbering, V domains shown)
VH: B1 VH
VL: B1 VL with H39T, E96G
notes: one-arm format as m2
B41: GLS3000 H27dN (antibody, name in Kabat numbering, V domains shown)
VH: B1 VH
VL: B1 VL with H31N, E96G
notes: one-arm format as m2
B42: GLS3000 K50P (antibody, name in Kabat numbering, V domains shown)
VH: B1 VH
VL: B1 VL with K55P, E96G
notes: one-arm format as m2
B43: GLS3000 H27dP (antibody, name in Kabat numbering, V domains shown)
VH: B1 VH
VL: B1 VL with H31P, E96G
notes: one-arm format as m2
B44: GLS3000 H27dD (antibody, name in Kabat numbering, V domains shown)
VH: B1 VH
VL: B1 VL with H31D, E96G
notes: one-arm format as m2
B45: GLS3000 H34P (antibody, name in Kabat numbering, V domains shown)
VH: B1 VH
VL: B1 VL with H39P, E96G
notes: one-arm format as m2
B46: GLS3000 H27dL (antibody, name in Kabat numbering, V domains shown)
VH: B1 VH
VL: B1 VL with H31L, E96G
notes: one-arm format as m2

biological target: CD3ε homodimer protein (human, UniProt P07766 23-126, limits assumed); assay: SPR, immobilized CD3ε homodimer;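 also: biacore T200 surface plasmon resonance at 25 °C, antibody variants flowed as analytes over amine-coupled CD3ε homodimer on a CM4 chip, variant binding amount divided by that of GLS3000 antibody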
Sequence (P07766 23-126 limits assumed): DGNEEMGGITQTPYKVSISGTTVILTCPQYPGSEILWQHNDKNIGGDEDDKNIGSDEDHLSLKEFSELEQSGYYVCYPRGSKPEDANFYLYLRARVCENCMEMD

| Binder | ratio of amounts bound (vs GLS3000) |
| --- | --- |
| B1 | 0.16 |
| B2 | 0.27 |
| B3 | 0.85 |
| B4 | 0.65 |
| B5 | 0.29 |
| B6 | 0.39 |
| B7 | 0.2 |
| B8 | 0.59 |
| B9 | 0.24 |
| B10 | 0.22 |
| B11 | 0.26 |
| B12 | 0.3 |
| B13 | 0.32 |
| B14 | 0.65 |
| B15 | 1.06 |
| B16 | 0.23 |
| B17 | 0.21 |
| B18 | 0.3 |
| B19 | 0.64 |
| B20 | 0.29 |
| B21 | 0.24 |
| B22 | 0.26 |
| B23 | 0.23 |

| Binder | ratio of amounts bound (vs GLS3000) |
| --- | --- |
| B24 | 0.48 |
| B25 | 0.31 |
| B26 | 0.59 |
| B27 | 0.63 |
| B28 | 1.02 |
| B29 | 0.25 |
| B30 | 0.23 |
| B31 | 0.26 |
| B32 | 0.25 |
| B33 | 0.78 |
| B34 | 0.35 |
| B35 | 2.17 |
| B36 | 0.17 |
| B37 | 0.27 |
| B38 | 0.22 |
| B39 | 0.16 |
| B40 | 0.89 |
| B41 | 0.3 |
| B42 | 0.3 |
| B43 | 0.24 |
| B44 | 0.22 |
| B45 | 0.34 |
| B46 | 0.3 |
